Measurements taken from PMC9975500, “High level expression of nicotinamide nucleoside kinase from Saccharomyces cerevisiae and its purification and immobilization by one-step method” (Frontiers in Bioengineering and Biotechnology, 2023).

Legend:
purified protein = substrate: NC(=O)c1ccc[n+]([C@@H]2O[C@H](CO)[C@@H](O)[C@H]2O)c1; test: purified protein; conditions: free enzyme, ATP 1 mM, 10 mM MgCl2, 20 mM Tris-HCl pH 5.8, optimal temperature (30 °C for free enzyme)
[1] = substrate: Nc1ncnc2c1ncn2[C@@H]1O[C@H](COP(=O)(O)OP(=O)(O)OP(=O)(O)O)[C@@H](O)[C@H]1O; test: HPLC of NMN formed, Michaelis-Menten fit; assay type: biochemical, Saccharomyces cerevisiae; conditions: free enzyme, NR 1 mM, 10 mM MgCl2, 20 mM Tris-HCl pH 5.8, optimal temperature (30 °C for free enzyme)

B1: reScNRK1 (recombinant nicotinamide riboside kinase1; nicotinamide nucleoside kinase1) (Saccharomyces cerevisiae S288C) (protein)
chain: MTSKKVILVALSGCSSSGKTTIAKLTASLFTKATLIHEDDFYKHDNEVPVDAKYNIQNWDSPEALDFKLFGKELDVIKQTGKIATKLIHNNNVDDPFTKFHIDRQVWDELKAKYDSINDDKYEVVIVDGFMIFNNTGISKKFDLKILVRAPYEVLKKRRASRKGYQTLDSFWVDPPYYFDEFVYESYRANHAQLFVNGDVEGLLDPRKSKNIKEFINDDDTPIAKPLSWVCQEILKLCKD
notes: free enzyme
Purified protein
  Km: 18.69 mM
  Vmax: 98.4 µmol/min/mg
[1]
  Km: 54.27 mM
  Vmax: 137 µmol/min/mg
